Data set [1] has as its target T1, Hfq (UniProt P0A6X3 1-102). Briefly: EMSA. (A gel shift assay detects complexes by their altered migration in electrophoresis.)
Data set [2] addresses T1, Hfq. Nature of the data set: EMSA. The source holds these as a separate data set.

As usually defined, the Kd is the concentration at which binding is half-saturated. The low end stands for tighter binding, the high end for weaker binding.

T1 sequence (P0A6X3 whole entry): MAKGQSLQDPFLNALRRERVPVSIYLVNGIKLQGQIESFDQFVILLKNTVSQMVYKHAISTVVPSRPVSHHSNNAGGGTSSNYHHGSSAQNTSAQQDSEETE

B1: MicAstab (structured_RNA)
RNA: GAAAGACGCGCAUUUGUUAUCAUCAUCCCUGGGAAAGCGACCGUUUCCCUGGCCACUCACGAGUGGCCUUUUAAAA
For B1, the affinity with Hfq [1], expressed as Kd, was 1.5 nM.

B2: MicAstab + ompA leader (structured_RNA)
RNA 1: GAAAGACGCGCAUUUGUUAUCAUCAUCCCUGGGAAAGCGACCGUUUCCCUGGCCACUCACGAGUGGCCUUUUAAAA
RNA 2: GGGCCAGGGGUGCUCGGCAUAAGCCGAAGAUAUCGGUAGAGUUAAUAUUGAGCAGAUCCCCCGGUGAAGGAUUUAACCGUGUUAUCUCGUUGGAGAUAUUCAUGGCGUAUUUUGGAUGAUAACGAGGCGCAAAAAAUGAAAAAGACAGCUAUCGCGAUUGCAGUGGCA
With B2, the binding result with Hfq [2] is “binds”.

These data come from paper PMC3597676.
